Source: a protein production outcome set (Wang et al. 2014)

Assay: label from the status in PepcDB records

Sequence	protein production
SPFDTGPELESQIRNQYGVDVHVVPVLDTLNEAETLDRVAMQAARTIGPLVDSNAIIGVAWGATLSAVSRHLTRKMTHDSIVVQLNGAGNMQTTGITYASDIMRRFGSAYGARVEQFPVPAFFDHASTKTAMWNERSVQRILDLQARMSIAIFGVGSVDSDYPSHVYAGGYLDEHDLTMLAADDVVGDVATVFFRSDGSSDGITLNERSTGPSHEQLRQVRRRICVVSGASKINGLQGALAAGLATDLILDEASARRLVSFNGH	not failed
SQEANYGALLRELCLTQFQVDMEAVGETLWCDWGRTIRSYRELADCTWHMAEKLGCFWPNAEVDRFFLAVHGRYFRSCPISGRAVRDPPGSILYPFIVVPITVTLLVTALVVWQSKRTEGIV	failed
SQEQAQTTDWRATLKTIRNGVHKIDTYLNAALDLLGGEDGLCQYKCSDGSKPFPRYGYKPSPPNGCGSPLFGVHLNIGIPSLTKCCNQHDRCYETCGKSKNDCDEEFQYCLSKICRDVQKTLGLTQHVQACETTVELLFDSVIHLGCKPYLDSQRAACRCHYEEKTDL	not failed
SQFVLQDLQDATLGSLLSSLMQHCDPPQRKYPLEKGTPPPWWPTGNEEWWVKLGLPKSQSPPYRKPHDLKKMWKVGVLTAVINHMLPDIAKIKRHVRQSKCLQDKMTAKESAIWLAVLNQEESLIQQ	not failed
SQSLKPEPFGRRAQAVETNKTLHEMKTRFLLFGETNQGCQIRINHPDTLQECGFNSSLPLVMIIHGWSVDGVLENWIWQMVAALKSQPAQPVNVGLVDWITLAHDHYTIAVRNTRLVGKEVAALLRWLEESVQLSRSHVHLIGYSLGAHVSGFAGSSIGGTHKIGRITGLDAAGPLFEGSAPSNRLSPDDANFVDAIHTFTREHMGLSVGIKQPIGHYDFYPNGGSFQPGCHFLELYRHIAQHGFNAITQTIKCSHERSVHLFIDSLLHAGTQSMAYPCGDMNSFSQGLCLSCKKGRCNTLGYHVRQEPRSKSKRLFLVTRAQSPFKVYHYQLKIQFINQTETPIQTTFTMSLLGTKEKMQKIPITLGKGIASNKTYSFLITLDVDIGELIMIKFKWENSAVWANVWDTVQTIIPWSTGPRHSGLVLKTIRVKAGETQQRMTFCSENTDDLLLRPTQEKIFVKCEIKSKTSKRKIR	failed
SQVDDWIVGLEVEIFTFDGKEYRGIVYTYDADANCVVLARKSQDSLKSDLRILKASLVKNINVLGRSNVDQLPQQLSPLNLEALKMREEQALQKARKDLARTGVGVSQQAQEIFDALCKTLPCQWEEDSIVIFENIKLKKPYRVEDLDEIEAVNRVKVVLENELQKLQRRNT	not failed
SSAQFDHVTVIKKSNVYFGGLCISHTVQFEDGTKKTLGVILPTEQPLTFETHVPERMEIISGECRVKIADSTESELFRAGQSFYVPGNSLFKIETDEVLDYVCHLE	failed
SSFQGPLDATVVVNLQSPTLEEKNEFPEDLRTELMQTLGSYGTIVLVRINQGQMLVTFADSHSALSVLDVDGMKVKGRAVKI	not failed
SSHQPLSCLTEKEDSPSESTGNGPPHLAHPNLDTFTPEELLQQMKELLTENHQLKEAMKLNNQAMKGRFEELSAWTEKQKEERQFFEIQSKEAKERLMALSHENEKLKEELGKLKGKSERSSEDPTDDSRLPRAEAEQEKDQLRTQVVRLQAEKADLLGIVSELQLKLNSSGSSEDSFVEIRMAEGEAEGSVKEIKHSPGPTRTVSTGTSRSADGAKNYFEHEELTVSQLLLCLREGNQKVERLEVALKEAKERVSDFEKKTSNRSEIETQTEGSTEKENDEEKGPETVGSEVEALNLQVTSLFKELQEAHTKLSEAELMKKRLQEKCQALERKNSAIPSELNEKQELVYTNKKLELQVESMLSEIKMEQAKTEDEKSKLTVLQMTHNKLLQEHNNALKTIEELTRKESEKVDRAVLKELSEKLELAEKALASKQLQMDEMKQTIAKQEEDLETMTILRAQMEVYCSDFHAERAAREKIHEEKEQLALQLAVLLKENDAFEDGGRQSLMEMQSRHGARTSDSDQQAYLVQRGAEDRDWRQQRNIPIHSCPKCGEVLPDIDTLQIHVMDCII	failed
SSNYPRCWNCGGPWGPGREDRFFCPQCRALQAPDPTRDYFSLMDCNRSFRVDTAKLQHRYQQLQRLVHPDFFSQRSQTEKDFSEKHSTLVNDAYKTLLAPLSRGLYLLKLHGIEIPERTDYEMDRQFLIEIMEINEKLAEAESEAAMKEIESIVKAKQKEFTDNVSSAFEQDDFEEAKEILTKMRYFSNIEEKIKLKKIPL	failed
SSSDVVTLTVGATPSPHAKILTYINDNLAADAGIKLDIVEYTDYVQPNTALNDGDLDANFYQTVPYLENAEKQFGYNFEAGEGIHLEPLGVFSNKHKSLDELPDGGTIGIISDTANQSRALELLATQGLVSIPEGDGDVNINTVTKLKNFDFREVEGPQLVRSLDDFDYAVINGNFAQEGGKTISGDALVVESPVDNPAVNVLVWKGDSKKVDAIAKLEKLLHSDEVKQYIEKTWSDGSVIPAF	not failed
SSSSSSVPAYLGDEDLTQETRALISSLPKEKGWLVSEIYEFQGLWHTQAILQGILICQKRFEAKDSDIILVTNPKSGTTWLKALVFALLNRHKFPVSSSGNHPLLVTNPHLLVPFLEGVYYESPDFDFSSLPSPRLMNTHISHLSLPESVKSSSCKIVYCCRNPKDMFVSLWHFGKKLAPEETADYPIEKAVEAFCEGKFIGGPFWDHILEYWYASRENPNKVLFVTYEELKKQTEVEMKRIAEFLECGFIEEEEVREIVKLCSFESLSNLEVNKEGKLPNGIETKTFFRKGEIGGWRDTLSESLAEEIDRTIEEKFKGSGLKFSS	not failed
SSTQGWADGLLTDIAHVRAHISDEFLFSSASTLNEIALAADIEERTQSVDVFLGNSLFVRLVDMFGRLNTEVFTNRGASGIDGLFATASGVQRSRGKPLLMYIGDTSALYDLNSLALFSRNDLPSVLVVTNNDGGAIFDMLPVPQEHRTAYYQMPHGYQFEHAAKQFGLKYEKPTTLQMYQAMVADHLSSGQGTMLVEVQTPPSQAAELIKAFNKSLHASL	failed
STAFFFRRMSPADKRKLLDELRSIYRTIVLEYFNTDAKVNERIDEFVSKAFFADISVSQVLEIHVELMDTFSKQLKLEGRSEDILLDYRLTLIDVIAHLCEMYRRSIPREV	not failed
STFYVEFNRKDSDKTLAKAFQNKKIRQALSLAINRKSYVNNTLGNGSTVSKGYVSEDLAKNPTTGKDFTTDAAVPSAVDYNLTKAKKLWKEGLKEIGETKLNIKLLSDDTDAGKKATEFIQGGWEKLPGLTVTNQNVPFKTRLQRSQNGNFDTVISAWNADFTDPISFLSLFTSDNSYNNGKYDSAAYDDAVKKAEGADANNKTARWADMVAAEKQLMNDQGVIPIYQQASATLTRSNLKGIIYNTAGSNYNFKYMSVK	failed
STVVEIKSQDQFTQLTTTNAANKLIVLYFKAQWADPCKTMSQVLEAVSEKVRQEDVRFLSIDADEHPEISDLFEIAAVPYFVFIQNGTIVKEISAADPKEFVKSLEILSNASASLANNAKGPKSTSDEESSGSSDDEEDETEEEINARLVKLVQAAPVMLFMKGSPSEPKCGFSRQLVGILREHQIRFGFFDILRDENVRQSLKKFSDWPTFPQLYINGEFQGGLDIIKESIEEDPEYFQHALQ	not failed
SVICCAAVNCSNRQGKGEKRAVSFHRFPLKDSKRLIQWLKAVQRDNWTPTKYSFLCSEHFTKDSFSKRLEDQHRLLKPTAVPSIFHLTEKKRGAGGHGRTRRKDASKATGGVRGHSSAATGRGAAGWSPSSSGNPMAKPESRRLKQAALQGEATPRAAQEAASQEQAQQALERTPGDGLATMVAGSQGKAEASATDAGDESATSSIEGGVTDKSGISMDDFTPPGSGACKFIGSLHSYSFSSKHTRERPSVPREPIDRKRLKKDVEPSCSGSSLGPDKGLAQSPPSSSLTATPQKPSQSPSAPPADVTPKPATEAVQSEHSDASPMSINEVILSASGACKLIDSLHSYCFSSRQNKSQVCCLREQVEKKNGELKSLRQRVSRSDSQVRKLQEKLDELRRVSVPYPSSLLSPSREPPKMNPVVEPLSWMLGTWLSDPPGAGTYPTLQPFQYLEEVHISHVGQPMLNFSFNSFHPDTRKPMHRECGFIRLKPDTNKVAFVSAQNTGVVEVEEGEVNGQELCIASHSIARISFAKEPHVEQITRKFRLNSEGKLEQTVSMATTTQPMTQHLHVTYKKVTP	not failed
SVSLVGPAPWGFRLQGGKDFNMPLTISSLKDGGKASQAHVRIGDVVLSIDGISAQGMTHLEAQNKIKACTGSLNMTLQRASAAAKSEPVS	not failed
SVTFSYLAETDYPVFTLGGSTADAARRLAASGCACAPVLDGERYLGMVHLSRLLEGRKGWPTVKEKLGEELLETVRSYRPGEQLFDNLISVAAAKCSVVPLADEDGRYEGVVSRKRILGFLAERI	not failed
SYASETASTQGLPALELDPEELLAQVQLLRAAVEGSRRESRELVGALERERRLNLEMRQRFERQFAAVSDQLLQLNHLQKESEALLQSLQEQLNEAELQKNAAQRELACVQRQLSLARAEADAGKRVLTTIAEKEALLRKTSQANADLQQIVMHLQAELRNSELQPSTSNASEERLHEAEIPSLADRDAYQTLQQTIEKLSAERDMWYHECARAKEESLRLQQDAERLRGLLDEQQRVHTTTQTLLQDRHLLMRRIIAALAEKYLMEKLPNQHYTQEIDSSPFQARGGTSVQEAHKHERLRRARSF	not failed
SYMYDRDGSLVSEIVSDHENRVLVPFNKIPEEVKQIFLTSEDRHFYEHKGFDFMGMVPPTASNVKDKKIDQGASTITQQLSRNLYLSHERSFSRKLTELAYSYQLEKKYTKNEILEAYLNTIYFNNGVYGVGSAAQFYFSKPLKSLTVGEMAFICAIPNNPTLYDPLKHF	failed
TAALSGAANLGAPLSNDFCTISLSDKWRGWDEIEEKLRAAAISGFVVVLYNCWRDYERAVDVLREERADDVPAAIVNDSGRGEAGRNLDDETETITTLGELPEHDDKVGGMGSSIVVGTHETEV	failed
TAQLTIEAVPSNAAEGKEVLLLVHNLPQDPRGYNWYKGETVDANRRIIGYVISNQQITPGPAYSNRETIYPNASLLMRNVTRNDTGSYTLQVIKLNLMSEEVTGQFSVHPETPKPSI	not failed
TATLILDDGLAIRYANPAAELLFSQSAKRIVEQSLSQLIQHASLDLALLTQPLQSGQSITDSDVTFVVDGRPLMLEVTVSPITWQRQLMLLVEMRK	not failed
TDVSSWIVYPSGKVYVAAVRLERVVLTCELCRPWAEVRWTKDGEEVVESPALLLQKEDTVRRLVLPAVQLEDSGEYLCEIDDESASFTVTVTEPPVRIIY	not failed
TEASSLVGKLETDVEIKASADKFHHMFAGKPHHVSKASPGNIQGCDLHEGDWGTVGSIVFWNYVHDGEAKVAKERIEAVEPDKNLITFRVIEGDLMKEYKSFLLTIQVTPKPGGPGSIVHWHLEYEKISEEVAHPETLLQFCVEVSKEIDEHLLAEE	not failed
TEETAKVVPMAVITPAINQLTDQEKAEGWALLFDGKTTKGWRGAHKDAFPDHGWMVKDGELIVQKSDGSESTNGGDIVTEGEYSAFEFSVDFKITEGANSGIKYFVTEQEKQKGSAYGLEFQLLDDAKHPDAKLYTTFPGSRTLGSLYDLKKSENIHFNGVGEWNTAVVKVFPNNHVEHWLNGVKVLEYERGSKEFRDLVKGSKYADPSYNAGGAFGEAPKGHILLQDHGDEVAFRNIKVKELK	not failed
TFYSVRMRASMNGSHEDGGKHISGGERLIPFHEMKHTVNALLEKGLSHSRGKPDFMQIQFEEVHESIKTIQPLPVHTNEVSCPEEGQKLARLLLEKEGVSRDVIEKAYEQIPEWSDVRGAVLFDIHTGKRMDQTKEKGVRVSRMDWPDANFEKWALHSHVPAHSRIKEALALASKVSRHPAVVAELCWSDDPDYITGYVAGKKMGYQRITAMKEYGTEEGCRVFFIDGSNDVNTYIHDLEKQPILIE	not failed
